Source: PMC2811023 (Nucleic Acids Research, 2009)

B1: Staphylococcus aureus GatB (subunit B of the heterotrimeric tRNA-dependent amidotransferase GatCAB) (enzyme)
chain: MHFETVIGLEVHVELKTDSKMFSPSPAHFGAEPNSNTNVIDLAYPGVLPVVNKRAVDWAMRAAMALNMEIATESKFDRKNYFYPDNPKAYQISQFDQPIGENGYIDIEVDGETKRIGITRLHMEEDAGKSTHKGEYSLVDLNRQGTPLIEIVSEPDIRSPKEAYAYLEKLRSIIQYTGVSDVKMEEGSLRCDANISLRPYGQEKFGTKAELKNLNSFNYVRKGLEYEEKRQEEELLNGGEIGQETRRFDESTGKTILMRVKEGSDDYRYFPEPDIVPLYIDDAWKERVRQTIPELPDERKAKYVNELGLPAYDAHVLTLTKEMSDFFESTIEHGADVKLTSNWLMGGVNEYLNKNQVELLDTKLTPENLAGMIKLIEDGTMSSKIAKKVFPELAAKGGNAKQIMEDNGLVQISDEATLLKFVNEALDNNEQSVEDYKNGKGKAMGFLVGQIMKASKGQANPQLVNQLLKQELDKR

Tests used:
[1] = target: T1, Staphylococcus aureus GatA (subunit A of the heterotrimeric tRNA-dependent amidotransferase GatCAB) (Staphylococcus aureus, UniProt P63488 1-485); experiment: crystal structure
T1 sequence: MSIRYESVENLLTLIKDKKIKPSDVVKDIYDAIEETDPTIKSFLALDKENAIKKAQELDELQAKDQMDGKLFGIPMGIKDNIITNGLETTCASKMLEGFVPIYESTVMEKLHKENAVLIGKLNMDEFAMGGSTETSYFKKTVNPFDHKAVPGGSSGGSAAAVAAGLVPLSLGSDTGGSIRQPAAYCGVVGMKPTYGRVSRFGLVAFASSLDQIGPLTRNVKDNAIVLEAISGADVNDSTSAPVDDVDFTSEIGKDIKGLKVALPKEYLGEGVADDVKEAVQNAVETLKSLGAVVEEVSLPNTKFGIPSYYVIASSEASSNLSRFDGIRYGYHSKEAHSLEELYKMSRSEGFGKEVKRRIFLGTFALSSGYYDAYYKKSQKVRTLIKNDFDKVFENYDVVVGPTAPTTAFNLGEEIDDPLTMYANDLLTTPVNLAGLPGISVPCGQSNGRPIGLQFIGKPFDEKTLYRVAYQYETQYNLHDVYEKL

[2] = target: B1; experiment: crystal structure

B1: binds [1].

B2: Staphylococcus aureus GatC (subunit C of the heterotrimeric tRNA-dependent amidotransferase GatCAB) (natural protein)
chain: MTKVTREEVEHIANLARLQISPEETEEMANTLESILDFAKQNDSADTEGVEPTYHVLDLQNVLREDKAIKGIPQELALKNAKETEDGQFKVPTIMNEEDA
B2: binds [1]; binds [2].
